Experimental data from US7097972.

Biological target: purified poly(ADP-ribose) polymerase (PARP)

B1: purified recombinant human ICE (protein)
chain 1: NPAMPTSSGSEGNVKLCSLEEAQRIWKQKSAEIYPIMDKSSRTRLALIICNEEFDSIPRRTGAEVDITGMTMLLQNLGYSVDVKKNLTASDMTTELEAFAHRPEHKTSDSTFLVFMSHGIREGICGKKHSEQVPDILQLNAIFNMLNTKNCPSLKDKPKVIIIQACRGDSPGVVWFKD
chain 2: AIKKAHIEKDFIAFCSSTPDNVSWRHPTMGSVFIGRLIEHMQEYACSCDVEEIFRKVRFSFEQPDGRAQMPTTERVTLTRCFYLFPGH
For B1, the “proteolytic cleavage of purified PARP, anti-PARP immunoblot” value was “Purified ICE did not cleave PARP”.
